Reference: patent publication US9539338B2, “Polymer-based protein engineering methods to rationally tune enzyme activity, pH-dependence and stability” (Carnegie Mellon University, priority 2013, dated 2017)

Legend:
[1] = Enzyme stability at 25° C. or 40° C., first order inactivation; assay type: physicochemical; details: 1 mg enzyme/mL, pH 8.0
Experimental: Native CT and CT conjugates (1 mg enzyme/mL) were dissolved in 0.1 M sodium phosphate buffer (pH 8.0) and incubated in a water bath at either 25° C. or 40° C. At various time points, aliquots were removed and diluted to 0.1 mg enzyme/mL using 0.1 M phosphate buffer (pH 8.0). Residual activity was calculated as the percentage of activity remaining relative to the activity at time zero. Substrate (Suc-AAPF-pNA) concentration was kept constant at 288 μM for each sample and time points.

[2] = biological target: T1, Bowman-Birk trypsin-chymotrypsin inhibitor from glycine max (GM) (Glycine max, UniProt P01055); assay: Inhibitor binding study with Bowman-Birk inhibitor from glycine max; assay type: biochemical, glycine max (soybean); details: for Apparent Vmax / KM/Vmax: pH 8.0
T1 construct: purchased Sigma Aldrich; bovine pancreas for chymotrypsin
Experimental: FIGS. 24A and B show (A) Substrate/initial velocity plots and (B) secondary plots to determine inhibitor constant for native chymotrypsin with GM in 0.1 M sodium phosphate buffer (pH 8) at 25° C. […]
FIGS. 25A and B show (A) Substrate/initial velocity plots and (B) secondary plots to determine inhibitor constant for chyomtrypsin-pQA200 with GM in 0.1 M sodium phosphate buffer (pH 8) at 25° C. […]
Enzyme inhibition was assayed by measuring the hydrolytic activities of samples which contained a fixed concentration of protease and varying amounts of inhibitor, including a blank with no inhibitor. Inhibitors and peptide substrate were simultaneously added to the native and conjugate solutions immediately before measuring initial rates. The initial rate of hydrolysis of the peptide substrate was monitored by recording the increase in absorption at 412 nm. To determine dissociation constant of the enzyme-inhibitor complexes (Ki), Vmax app and KM app were determined by non-linear curve fitting (equation for Michaelis-Menten parameters) of plots of initial rate versus substrate concentration using the Enzfitter software. The dissociation constants were calculated from secondary plot of KM app/Vmax app versus initial inhibitor concentration.

[3] = Size measurements during 167 mM HCl (pH 1) incubation; assay type: physicochemical
Experimental: CT conjugates (4 μM) and native CT (29 μM) passed through a […] cellulose filter were incubated in 167 mM HCl at 37° C. in 1 mL aliquots. Aliquots were removed from incubation at each specified time point. Hydrodynamic diameter was then determined using a Malvern zetasizer nano-ZS at 25° C. Intensity PSD measurements, averaged over five sample runs at each time point, were used to calculate hydrodynamic diameter (Dh).

[4] = Stability in artificial gastric acid solution, 167 mM HCl, 37° C. (chymotrypsin-pQA); assay type: physicochemical; details: 167 mM HCl (pH 1)
Experimental: Native CT and conjugates (1.5 to 2.0 mL, 4.0 μM) were incubated in 100 mM sodium phosphate buffer (pH 7.0) at 50 or 60° C., and an artificial gastric acid solution (167 mM HCl aq. pH 1.5) at 37° C. Aliquots (50 μL) were removed and kept at 0° C. before measuring residual activity. The residual activity was calculated as a ratio of initial rates of hydrolysis reaction at given incubation time over the initial activity for each specific sample.

pepsin = biological target: T2, pepsin (Sus scrofa, UniProt P00791); assay: Stability to pepsin degradation; assay type: in vitro ADME, porcine; details: 167 mM HCl, 37° C.
T2 construct: purchased Sigma Aldrich; host or cells: porcine stomach mucosa
Experimental: Native CT and CT-conjugates (4 μM) were incubated in 167 mM HCl with 16 nM pepsin at 37° C. in 50 μL aliquots. Samples were retrieved at specified time points and residual activity was measured in 0.1 M sodium phosphate buffer (pH 8.0) at 25° C. with Suc-AAPF-pNA as substrate (288 μM). Each time point was measured in duplicate and residual activity was calculated as the ratio of activity remaining from time zero. As a control, pepsin (16 nM) bioactivity towards Suc-AAPF-pNA was measured at pH 8.0 and no product formation was observed.

Suc-AAPF-pNA = biological target: T3, Suc-AAPF-pNA (Bos taurus, UniProt P00766); assay: Enzyme kinetic assay: hydrolysis of Suc-AAPF-pNA at pH 5-10 (native CT, CT-PDMAEMA conjugates); assay type: biochemical
T3 construct: purchased Sigma Aldrich; host or cells: bovine pancreas
Experimental: N-Succinyl-Ala-Ala-Pro-Phe p-nitroanilide (0 to 50 μL of 9.60 mM in DMSO) was added to sodium phosphate buffer (990 to 940 μL of 100 mM, pH 5-10). Native CT or conjugates solution (10 μL of 4.0 μM) was added to the substrate solution. The initial rate of hydrolysis of the peptide substrate was monitored by recording the increase in absorption at 412 nm using a UV-VIS spectrometer. The Michaelis-Menten parameters (kcat, Km and kcat/Km) were determined by non-linear curve fitting (equation for Michaelis-Menten parameters) of plots of initial rate versus substrate concentration using the Enzfitter software.

[5] = Stability at 50 or 60° C. (chymotrypsin-pQA); assay type: physicochemical; details: 0.1 M sodium phosphate buffer pH 8.0
Experimental: […] Aliquots (50 μL) were removed and kept at 0° C. before measuring residual activity. The residual activity was calculated as a ratio of initial rates of hydrolysis reaction at given incubation time over the initial activity for each specific sample.

[6] = pH 5.0, 100 mM sodium phosphate
[7] = pH 6.0, 100 mM sodium phosphate
[8] = pH 7.0, 100 mM sodium phosphate
[9] = pH 8.0, 100 mM sodium phosphate
[10] = pH 9.0, 100 mM sodium phosphate
[11] = pH 10.0, 100 mM sodium phosphate

T2 sequence (P00791 60-385): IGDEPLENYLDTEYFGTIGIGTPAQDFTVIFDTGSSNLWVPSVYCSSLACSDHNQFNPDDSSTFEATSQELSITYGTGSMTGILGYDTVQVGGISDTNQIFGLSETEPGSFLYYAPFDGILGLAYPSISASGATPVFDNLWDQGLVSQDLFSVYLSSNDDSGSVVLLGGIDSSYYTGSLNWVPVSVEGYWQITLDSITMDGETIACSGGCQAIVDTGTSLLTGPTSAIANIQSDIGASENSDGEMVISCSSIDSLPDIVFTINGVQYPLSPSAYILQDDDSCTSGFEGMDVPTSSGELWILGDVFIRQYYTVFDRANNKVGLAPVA

Question: For “α-Chymotrypsin (CT) from bovine pancreas (type II) [Native CT]”, which kinact ([1]; 25° C.) is on record?
Answer: 0.13 ± 1.2 × 10^−2 days−1

Question: And the t1/2 ([1]; 25° C.)?
Answer: 5.43 ± 0.51 days

Question: And the kinact ([1]; 40° C.)?
Answer: 6.61 ± 0.47 day⁻¹

Question: What about the t1/2 ([1]; 40° C.) of the same substance?
Answer: 0.10 ± 7.5 × 10^−3 days

Question: And the “GM Ki, fold higher than chymotrypsin-pQA198” value ([2]; GM)?
Answer: ~4 fold

Question: What about the “Apparent Vmax” value ([2]; GM [I]0 0 mM, 25° C.) of the same substance?
Answer: 1.10 mM/s

Question: And the KM/Vmax ([2]; GM [I]0 0 µM, 25° C.)?
Answer: 71.8 s⁻¹

Question: And the KM/Vmax ([2]; GM [I]0 0.049 µM, 25° C.)?
Answer: 90.4 s⁻¹

Question: And the KM/Vmax ([2]; GM [I]0 0.098 µM, 25° C.)?
Answer: 102.2 s⁻¹

Question: What about the KM/Vmax ([2]; GM [I]0 0.147 µM, 25° C.) of the same substance?
Answer: 150.1 s⁻¹

Question: And the KM/Vmax ([2]; GM [I]0 0.196 µM, 25° C.)?
Answer: 159.9 s⁻¹

Question: What about the KM/Vmax ([2]; GM [I]0 0.294 µM, 25° C.) of the same substance?
Answer: 188.0 s⁻¹

Question: What about the “Apparent Vmax” value ([2]; GM [I]0 0.049 mM, 25° C.) of the same substance?
Answer: 1.05 mM/s

Question: What about the “Apparent Vmax” value ([2]; GM [I]0 0.098 mM, 25° C.) of the same substance?
Answer: 1.18 mM/s

Question: What about the “Apparent Vmax” value ([2]; GM [I]0 0.147 mM, 25° C.) of the same substance?
Answer: 1.21 mM/s

Question: And the “Apparent Vmax” value ([2]; GM [I]0 0.196 mM, 25° C.)?
Answer: 1.23 mM/s

Question: What about the “Apparent Vmax” value ([2]; GM [I]0 0.294 mM, 25° C.) of the same substance?
Answer: 1.14 mM/s

Question: And the Ki ([2]; inhibitor Glycine Max, 25° C.)?
Answer: 172 nM

Question: And the “increase of hydrodynamic diameter (Dh)” value ([3]; 37° C., after 2 hours)?
Answer: 9 fold

Question: What about the “hydrodynamic diameter Dh at time zero” value ([3]; time zero) of the same substance?
Answer: 6.3±0.5 nm

Question: And the “time after which all activity was lost” value [4]?
Answer: 3 h

Question: What about the “time after which all activity was lost” value (pepsin) of the same substance?
Answer: 75 min

Question: And the Km (Suc-AAPF-pNA; [6])?
Answer: 212 µM

Question: What about the kcat (Suc-AAPF-pNA; [6]) of the same substance?
Answer: 2.28 ± 0.36 s⁻¹

Question: And the Km (Suc-AAPF-pNA; [7])?
Answer: 189 µM

Question: And the kcat (Suc-AAPF-pNA; [7])?
Answer: 12.13 s⁻¹

Question: What about the Km (Suc-AAPF-pNA; [8]) of the same substance?
Answer: 84.1 µM

Question: And the kcat (Suc-AAPF-pNA; [8])?
Answer: 21.54 s⁻¹

Question: And the Km (Suc-AAPF-pNA; [9])?
Answer: 55.2 µM

Question: And the kcat (Suc-AAPF-pNA; [9])?
Answer: 26.67 s⁻¹

Question: What about the Km (Suc-AAPF-pNA; [10]) of the same substance?
Answer: 104 µM

Question: What about the kcat (Suc-AAPF-pNA; [10]) of the same substance?
Answer: 29.49 s⁻¹

Question: And the Km (Suc-AAPF-pNA; [11])?
Answer: 258 µM

Question: What about the kcat (Suc-AAPF-pNA; [11]) of the same substance?
Answer: 27.69 s⁻¹

Question: What about the “time after which all activity was lost” value ([5]; 50° C.) of the same substance?
Answer: 2 h

Question: And the “time in which all activity was lost” value ([5]; 60° C.)?
Answer: 30 min
